In series [1] the test system is T1, SO2426 (Shewanella oneidensis MR-1), ORF:71750797.
T1 sequence: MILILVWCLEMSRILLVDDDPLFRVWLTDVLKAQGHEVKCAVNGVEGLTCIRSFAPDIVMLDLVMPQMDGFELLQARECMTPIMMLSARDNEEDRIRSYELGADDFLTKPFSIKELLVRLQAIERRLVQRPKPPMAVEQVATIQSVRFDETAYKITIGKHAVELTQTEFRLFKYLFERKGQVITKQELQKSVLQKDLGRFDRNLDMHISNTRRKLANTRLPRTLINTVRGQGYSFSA
The experiment in a line: EMSA. The note with it: DIG-11-dUTP incorporated (dTTP:DIG-dUTP 1:6 mix), 0.5X EMSA buffer [5 mM Tris-Cl pH 8.0, 75 mM KCl, 0.05 mM DTT, 0.05 mM EDTA, 6% glycerol], 5 mM MgCl2, 20 mM acetyl phosphate, 0.2 ug/ul poly(dI:dC). Background: A gel shift assay detects complexes by their altered migration in electrophoresis.

Series [2] deals with T2, SO2426sh (Shewanella oneidensis MR-1) (UniProt Q8EEF6).
T2 sequence: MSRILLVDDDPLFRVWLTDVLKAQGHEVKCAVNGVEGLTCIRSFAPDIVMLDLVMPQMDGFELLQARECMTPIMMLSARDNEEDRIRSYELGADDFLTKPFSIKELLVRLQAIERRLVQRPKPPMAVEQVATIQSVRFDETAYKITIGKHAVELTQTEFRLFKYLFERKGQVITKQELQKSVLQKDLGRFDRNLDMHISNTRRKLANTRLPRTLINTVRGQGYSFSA
The series can be described thus: EMSA. The note with it: DIG-11-dUTP incorporated (dTTP:DIG-dUTP 1:6 mix), 0.5X EMSA buffer [5 mM Tris-Cl pH 8.0, 75 mM KCl, 0.05 mM DTT, 0.05 mM EDTA, 6% glycerol], 5 mM MgCl2, 20 mM acetyl phosphate, 0.2 ug/ul poly(dI:dC).

As for “TTCGTCGTTGTAGTGAACCTGTAACAGCAAATCAGACGGAAAAATTTCTATTTAGCAACACAATGGAATGACTTACACGGCA (double strand) [so3030 upstream 83-bp probe]”, the binding entry in series [1] and in series [2] was “binds” each time.

The values above are taken from paper PMC3127752.
